Laboratory results: patent publication US20150275238A1, “GENETICALLY ENGINEERED MICROBES AND METHODS FOR CONVERTING ORGANIC ACIDS TO ALCOHOLS” (UNIVERSITY OF GEORGIA RESEARCH FOUNDATION, INC., priority 2014, published 2015)

Columns and labels:
[1] = substrate: CC=O; experiment: AdhA alcohol dehydrogenase enzyme assay, Michaelis-Menten kinetics in cell extracts of P. furiosus strain A; type: biochemical, Thermoanaerobacter strain X514; settings: other: recombinant AdhA in cell extracts of P. furiosus strain A, 50 mM Mops pH 7.5, 2 mM DTT, 70° C., nonlinear regression
Experimental: (§1) The protein content was determined using a standard Bradford assay. Whole-cell extracts and S100 were kept anoxic at all times, and enzyme activity assays were performed under reducing conditions in anoxic 50 mM Mops (pH 7.5) plus 2 mM DTT at 70° C. […] Vmax and Km values of AdhA were calculated using nonlinear regression (nls function) in R (R Development Core Team, 2013, Available at www.R-project.org/).

[2] = substrate: CCCC=O; experiment: as above; type: biochemical, Thermoanaerobacter strain X514; settings: other: recombinant AdhA in cell extracts of P. furiosus strain A, 50 mM Mops pH 7.5, 2 mM DTT, 70° C., nonlinear regression
Experimental: as §1

B1: T. X514 AdhA (Thermoanaerobacter ethanolicus) (protein)
chain: MWETKINPNKVFELRCKNTTYFGIGSIKKIKDILEVLKNKGINNVILVTGKGSYKASGAWDVVKPALETLGFKYSLYDKVGPNPTVDMIDEAAKIGRETGAKAVIGIGGGSPIDTAKSVAVLLEYTDKNARELYEQKFIPEKAAPIIAINLTHGTGTEVDRFAVATIPEKNYKPAIAYDCLYPMYAIDDPSLMTKLDKKQTIAVTIDALNHVTEAATTLVASPYSVLMAKETVRLIVRYLPAAVNDPENLVARYYLLYASALAGISFDNGLLHLTHALEHPLSAVKPEIAHGLGLGAILPAVVKAIYPSVAEVLAEVYSPIVPGLKGLPAEAEYVAKKVEEWLFKVGCTQKLSDFGFTKEDIPTLVRLAKTTPSLDGLLSNAPVEATEAVIAKIYEESF
Km [1]: 63 µM | Km [2]: 166 µM
